Data from IntAct's records for PubMed 25278935.

B1: Serine/threonine-protein kinase RsbT (Bacillus subtilis), P42411 (parent)
chain: MNDQSCVRIMTEWDIVAARQLGRNVAKELGFGTVDQARITTAISELARNIYLYAGKGQIGIEQVADRGKKGLKIIAEDQGPGIPDIRKVMEDGFSTSGGLGAGLPGVKRLMDEFSLNSVAGEGTEIQAIKWLR
partner: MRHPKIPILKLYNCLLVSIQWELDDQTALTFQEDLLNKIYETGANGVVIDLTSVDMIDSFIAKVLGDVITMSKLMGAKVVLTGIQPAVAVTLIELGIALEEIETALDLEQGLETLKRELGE
B2: Anti-sigma F factor (Bacillus subtilis), P10728 (parent)
chain: MKNEMHLEFSALSQNESFARVTVASFIAQLDPTMDELTEIKTVVSEAVTNAIIHGYEENCEGKVYISVTLEDHVVYMTIRDEGLGITDLEEARQPLFTTKPELERSGMGFTIMENFMDDVSIDSSPEMGTTIRLTKHLSKSKALCN
partner: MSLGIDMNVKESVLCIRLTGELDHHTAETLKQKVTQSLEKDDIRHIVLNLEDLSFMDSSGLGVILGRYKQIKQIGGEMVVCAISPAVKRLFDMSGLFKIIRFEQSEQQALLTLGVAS
B3: Tyrosine-protein kinase YwqD (Bacillus subtilis), P96716 (parent)
chain: MALRKNRGSRMQRNVIAMTEPKSLNSEQYRTIRTNIEFASVDRQMKSVMITSACPGEGKSTTAANLAVVFAQQGKKVLLIDADLRKPTVHTAFFLENTVGLTSVLLKKSSMEQAVQASNEKHLDVLTSGPIPPNPAELLSSKWMKELAYEACAAYDMVIFDTPPILAVADAQILGNVADGSVLVISSGKTEKEQAAKAKEALATCKSKLLGAIMNGKKLSKHSEYGYYGTKDNFMQK
partner: B1 chain
B4: HPr kinase/phosphorylase (Bacillus subtilis), O34483 (parent)
chain: MAKVRTKDVMEQFNLELISGEEGINRPITMSDLSRPGIEIAGYFTYYPRERVQLLGKTELSFFEQLPEEEKKQRMDSLCTDVTPAIILSRDMPIPQELIDASEKNGVPVLRSPLKTTRLSSRLTNFLESRLAPTTAIHGVLVDIYGVGVLITGKSGVGKSETALELVKRGHRLVADDCVEIRQEDQDTLVGNAPELIEHLLEIRGLGIINVMTLFGAGAVRSNKRITIVMNLELWEQGKQYDRLGLEEETMKIIDTEITKLTIPVRPGRNLAVIIEVAAMNFRLKRMGLNAAEQFTNKLADVIEDGEQEE
partner: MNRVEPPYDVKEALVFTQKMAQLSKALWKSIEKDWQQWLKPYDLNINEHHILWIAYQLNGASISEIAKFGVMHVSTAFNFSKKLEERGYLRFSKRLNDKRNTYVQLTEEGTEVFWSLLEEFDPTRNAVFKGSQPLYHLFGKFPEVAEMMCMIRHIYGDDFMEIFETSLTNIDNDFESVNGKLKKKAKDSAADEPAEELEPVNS

Variants of: B1
Details: with rsbs_bacsu rsbS

| Variant | effect of a mutation on the interaction |
| --- | --- |
| MNDQSCVRIMTEWDIVAARQLGRNVAKELGFGTVDQARITTAISELARAIYLYAGKGQIGIEQVADRGKKGLKIIAEDQGPGIPDIRKVMEDGFSTSGGLGAGLPGVKRLMDEFSLNSVAGEGTEIQAIKWLR | disrupting interaction strength |

Variants of: B2
Details: with sp2aa_bacsu spoIIAA

| Variant | effect of a mutation on the interaction |
| --- | --- |
| MKNEMHLEFSALSQNESFARVTVASFIAQLDPTMDELTEIKTVVSEAVTAAIIHGYEENCEGKVYISVTLEDHVVYMTIRDEGLGITDLEEARQPLFTTKPELERSGMGFTIMENFMDDVSIDSSPEMGTTIRLTKHLSKSKALCN | disrupting interaction strength |

Variants of: B3
Details: with rsbt_bacsu rsbT

| Variant | effect of a mutation on the interaction |
| --- | --- |
| MALRKNRGSRMQRNVIAMTEPKSLNSEQYRTIRTNIEFASVDRQMKSVMITSACPGEGKSTTAANLAVVFAQQGKKVLLIAADLRKPTVHTAFFLENTVGLTSVLLKKSSMEQAVQASNEKHLDVLTSGPIPPNPAELLSSKWMKELAYEACAAYDMVIFDTPPILAVADAQILGNVADGSVLVISSGKTEKEQAAKAKEALATCKSKLLGAIMNGKKLSKHSEYGYYGTKDNFMQK [D81A] | increasing interaction strength |

Variants of: B4
Details: with hpr_bacsu hpr

| Variant | effect of a mutation on the interaction |
| --- | --- |
| MAKVRTKDVMEQFNLELISGEEGINRPITMSDLSRPGIEIAGYFTYYPRERVMLLGKTELSFFEQLPEEEKKQRMDSLCTDVTPAIILSRDMPIPQELIDASEKNGVPVLRSPLKTTRLSSRLTNFLESRLAPTTAIHGVLVDIYGVGVLITGKSGVGKSETALELVKRGHRLVADDCVEIRQEDQDTLVGNAPELIEHLLEIRGLGIINVMTLFGAGAVRSNKRITIVMNLELWEQGKQYDRLGLEEETMKIIDTEITKLTIPVRPGRNLAVIIEVAAMNFRLKRMGLNAAEQFTNKLADVIEDGEQEE [Q53M] | disrupting interaction strength |
